According to US20170253633A1 (IMMATICS BIOTECHNOLOGIES, published 2017):

Molecular target: T1, HLA-A*02:01 (human)
T1 construct: MHC monomer first loaded with a UV-sensitive peptide, which is cleaved by UV and exchanged with the test peptide; captured on streptavidin plates; also called peptide-receptive MHC molecules
Assay: UV-ligand exchange + anti-b2m ELISA; +++ = peptide exchange yield >50
Source text: Candidate peptides for T cell based therapies according to the present invention were further tested for their MHC binding capacity (affinity). The individual peptide-MHC complexes were produced by UV-ligand exchange, where a UV-sensitive peptide is cleaved upon UV-irradiation, and exchanged with the peptide of interest as analyzed. Only peptide candidates that can effectively bind and stabilize the peptide-receptive MHC molecules prevent dissociation of the MHC complexes. To determine the yield of the exchange reaction, an ELISA was performed based on the detection of the light chain (β2m) of stabilized MHC complexes. The assay was performed as generally described in Rodenko et al. (Rodenko et al., 2006).
96 well MAXISorp plates (NUNC) were coated over night with 2 ug/ml streptavidin in PBS at room temperature, washed 4× and blocked forth at 37° C. in 2% BSA containing blocking buffer. Refolded HLA-A*02:01/MLA-001 monomers served as standards, covering the range of 15-500 ng/ml. Peptide-MHC monomers of the UV-exchange reaction were diluted 100 fold in blocking buffer. Samples were incubated for 1 h at 37° C., washed four times, incubated with 2 ug/ml HRP conjugated anti-β2m for 1 h at 37° C., washed again and detected with TMB solution that is stopped with […]. Absorption was measured at 450 nm. Candidate peptides that show a high exchange yield (preferably higher than 50%, most preferred higher than 75%) are generally preferred for a generation and production of antibodies or fragments thereof, and/or T cell receptors or fragments thereof, as they show sufficient avidity to the MHC molecules and prevent dissociation of the MHC complexes.

| Binder | peptide exchange yield [%] |
| --- | --- |
| VLMDDTDPL (gene: PSMC1) | 50 to 75 |
| ALSSPPPTV (gene: ZFYVE9) | 50 to 75 |
| YLAGEAPTL (gene: VARS) | 50 to 75 |
| GQLDFSEFL (gene: S100A11) | 50 to 75 |
| QIWDKILSV (gene: DHRS2) | 50 to 75 |
| QMLELITRL (gene: DICER1) | 50 to 75 |
| GLDSSVNVQGSVL (gene: WTAP) | 50 to 75 |
| YLEPKLTQV (gene: PSME4) | 50 to 75 |
| GLLSQGSPL (gene: GCLC) | 50 to 75 |
| LLAGLLVGV (gene: C1orf159) | 50 to 75 |
| YQAPDIDVQL (gene: GLTSCR2) | 50 to 75 |
| ILLDTPLFL (gene: SERHL2) | 50 to 75 |
| TLTSIIVAV (gene: MROH2A) | 50 to 75 |
| GLAGPVRGV (genes: SNURF, SNRPB, SNRPN) | 50 to 75 |
| ILVQVIPVV (gene: IRF6) | 50 to 75 |
| FLGENISNFL (gene: APOL1) | 50 to 75 |
| GLAQDPKSLQL (gene: TTC28) | 50 to 75 |
| SLIGGTNFV (gene: AP1B1) | 50 to 75 |
| VLANRVAVV (gene: DHRS2) | 50 to 75 |
| YLDPNQRDL (gene: ZNF573) | 50 to 75 |
| LLDVTPKAV (gene: TJP2) | 50 to 75 |
| SLDEKQNLV (gene: METTL8) | 50 to 75 |
| SLWEENQAL (gene: LAMA5) | 50 to 75 |

| Binder | peptide exchange yield [%] |
| --- | --- |
| TLIEDDALNGA (gene: HPGD) | 50 to 75 |
| YLDPSLNSL (gene: CXorf57) | 50 to 75 |
| VLFNIDGQGNHV (gene: GATA3) | 50 to 75 |
| VIADRVVTV (gene: VWA5B1) | 50 to 75 |
| ILGPQGNTI (gene: KHDRBS1) | 50 to 75 |
| STTNGGILTV (gene: FYTTD1) | 50 to 75 |
| ILDISRSEV (gene: GPR107) | 50 to 75 |
| TLVTGLASV (gene: MFN1) | 50 to 75 |
| YLAPENGYLMEA (gene: SNRNP70) | 50 to 75 |
| SLLDFERSL (gene: HPS3) | 50 to 75 |
| KLNATNIEL (gene: PSMA5) | 50 to 75 |
| QLAWFDTDL (gene: CTNNB1) | 50 to 75 |
| IVAPGTFEV (gene: ILF2) | 50 to 75 |
| TLFPSKIGV (genes: MOB1A, MOB1B) | 50 to 75 |
| GLSEPIFQL (gene: MFN1) | 50 to 75 |
| SLDSSGFSL (gene: PARP4) | 50 to 75 |
| RLIDDMVAQA (gene: IDH1) | 50 to 75 |
| SLATTLTKI (gene: COPB1) | 50 to 75 |
| FLLPLIIVL (gene: MR1) | 50 to 75 |
| YMLDIFHEVL (gene: HAS3) | 50 to 75 |
| ALLDEQQVNV (gene: ID1) | 50 to 75 |
| VLFGEITRL (gene: NDUFS2) | 50 to 75 |
| ALNDEINFL (gene: KRT7) | 50 to 75 |

| Binder | peptide exchange yield [%] |
| --- | --- |
| QLQGYLRSV (gene: RPL6) | 50 to 75 |
| SIVDFLITA (gene: PPP1R13L) | 50 to 75 |
| AMASHLTST (gene: RBM4) | 50 to 75 |
| FLIDASQRV (gene: COL6A5) | 50 to 75 |
| VLMDDTDPLV (gene: PSMC1) | 50 to 75 |
| IITKDLFQV (gene: DYNC1H1) | 50 to 75 |
| RLSQLEGVNV (gene as printed: VP535) | 50 to 75 |
| SLATLEGIQL (gene: ZNF236) | 50 to 75 |
| ILSAILVHL (gene: MROH2A) | 50 to 75 |
| RLLDFPTLLV (gene: MAP10) | 50 to 75 |
| QIDGTLSTI (genes: FBXO34, CHMP4C, CHMP4B, CHMP4BP1) | 50 to 75 |
| KLPEPPPLA (gene: ERV3-1) | 50 to 75 |
| GLLKAYSIRTA (gene: KRT7) | 50 to 75 |
| FLEEKEQAAL (genes: TRIM16, CDRT1, TRIM16L) | 50 to 75 |
| ILLRDLPTL (gene: FAM174B) | 50 to 75 |
| ALYPGQLVQL (gene: ARHGAP9) | 50 to 75 |
| TMIVSLAAV (gene: ARL6IP1) | 50 to 75 |
| LLYPTEITV (gene: ITGA3) | 50 to 75 |
| YLTNEGIQYL (genes: RPS10-NUDT3, RPS10) | 50 to 75 |
| IIIPEIQKV (gene: CSE1L) | 50 to 75 |
| ALWDEFNQL (gene: TBX1) | 50 to 75 |
